What was measured:
[1] = molecular target: T1, Full-length human LRP6-Fc tagged (R&D Systems) (human, UniProt O75581 20-1613); assay: SPR; Biacore T100. LRP6-Fc (0.5 μg/mL) captured on Protein A that was amine-coupled to a CM3 chip; DKK1 3-54 nM injected; HBS-EP+ pH 7.4, 25°C; apparent KD; conditions: both partners purified
[2] = molecular target: T1, Full-length human LRP6-Fc tagged (R&D …); assay: SPR; Biacore T100. LRP6-Fc immobilised by amine coupling on a CM3 chip (3000 RU); DKK1 3-54 nM injected for 180 sec; HBS-EP+ pH 7.4, 25°C; apparent KD calculated as kd/ka; conditions: both partners purified

T1 sequence (O75581 20-1613): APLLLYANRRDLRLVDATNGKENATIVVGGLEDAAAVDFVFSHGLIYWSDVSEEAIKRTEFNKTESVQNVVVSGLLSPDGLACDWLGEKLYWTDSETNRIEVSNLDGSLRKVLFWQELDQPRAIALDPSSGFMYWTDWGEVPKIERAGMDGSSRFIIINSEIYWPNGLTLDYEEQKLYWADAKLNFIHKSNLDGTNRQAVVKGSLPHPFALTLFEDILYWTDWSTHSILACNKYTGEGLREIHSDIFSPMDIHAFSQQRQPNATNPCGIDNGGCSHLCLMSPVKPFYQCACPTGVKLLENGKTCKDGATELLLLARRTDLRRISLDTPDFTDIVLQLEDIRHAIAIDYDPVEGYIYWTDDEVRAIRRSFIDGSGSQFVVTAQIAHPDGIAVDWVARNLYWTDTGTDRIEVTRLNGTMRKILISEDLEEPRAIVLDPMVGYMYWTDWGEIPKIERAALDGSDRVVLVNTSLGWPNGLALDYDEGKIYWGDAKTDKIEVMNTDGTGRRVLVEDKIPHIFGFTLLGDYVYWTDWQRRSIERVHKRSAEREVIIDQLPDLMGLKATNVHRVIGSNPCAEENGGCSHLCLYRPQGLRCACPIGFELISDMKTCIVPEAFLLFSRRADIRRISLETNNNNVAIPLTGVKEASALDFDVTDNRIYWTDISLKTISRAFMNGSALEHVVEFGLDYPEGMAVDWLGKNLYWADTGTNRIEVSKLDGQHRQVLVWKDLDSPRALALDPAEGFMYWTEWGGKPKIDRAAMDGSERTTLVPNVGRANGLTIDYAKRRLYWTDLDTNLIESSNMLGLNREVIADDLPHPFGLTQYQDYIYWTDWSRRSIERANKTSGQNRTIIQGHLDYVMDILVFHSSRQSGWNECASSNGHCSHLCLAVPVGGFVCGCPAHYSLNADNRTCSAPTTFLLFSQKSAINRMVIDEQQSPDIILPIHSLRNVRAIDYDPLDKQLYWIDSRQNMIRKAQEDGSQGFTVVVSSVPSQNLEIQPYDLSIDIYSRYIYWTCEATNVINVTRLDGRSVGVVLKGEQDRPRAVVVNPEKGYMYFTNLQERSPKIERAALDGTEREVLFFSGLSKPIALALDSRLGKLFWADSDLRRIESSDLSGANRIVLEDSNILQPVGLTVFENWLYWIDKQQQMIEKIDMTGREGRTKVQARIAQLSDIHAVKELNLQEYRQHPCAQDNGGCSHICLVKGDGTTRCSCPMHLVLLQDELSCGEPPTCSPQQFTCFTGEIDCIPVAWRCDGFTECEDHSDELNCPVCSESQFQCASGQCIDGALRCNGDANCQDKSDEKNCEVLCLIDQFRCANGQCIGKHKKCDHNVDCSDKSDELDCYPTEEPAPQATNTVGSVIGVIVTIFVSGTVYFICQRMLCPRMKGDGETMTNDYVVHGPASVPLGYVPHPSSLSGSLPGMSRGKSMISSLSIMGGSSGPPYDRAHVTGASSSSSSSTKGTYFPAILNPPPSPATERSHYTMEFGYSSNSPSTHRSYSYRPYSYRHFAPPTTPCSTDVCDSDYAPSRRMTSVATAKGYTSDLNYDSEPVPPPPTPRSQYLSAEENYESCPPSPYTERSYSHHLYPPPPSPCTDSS

B1: Commercial purified recombinant human DKK1 (ligand, UniProt O94907 32-266, looked up)
chain: TLNSVLNSNAIKNLPPPLGGAAGHPGSAVSAAPGILYPGGNKYQTIDNYQPYPCAEDEECGTDEYCASPTRGGDAGVQICLACRKRRKRCMRHAMCCPGNYCKNGICVSSDQNHFRGEIEETITESFGNDHSTLDGYSRRTTLSSKMYHTKGQEGSVCLRSSDCASGLCCARHFWSKICKPVLKEGQVCTKHRRKGSHGLEIFQRCYCGEGLSCRIQKDHHQASNSSRLHTCQRH
notes: Dickkopf 1 (DKK1), human, commercial recombinant protein; Neither catalogue number nor construct limits are printed; also called Dickkopf 1; commercial recombinant DKK1; source: bought: R&D Systems, purified recombinant
- Kd [1]: 0.84 nM
- Kd [2]: 0.349 nM
- koff [2]: 0.00183 s⁻¹
- kon [2]: 5.26e+06 M⁻¹ s⁻¹
